Test results taken from patent publication CN115368447A (HEFEI TIANGANG IMMUNOLOGY PHARMACEUTICAL CO LTD, dated 2022).

Columns and labels:
[1] = biological target: T1, 4-1BB蛋白 (SEQ ID NO:27), expressed on CHO-K1-4-1BB cells and Jurkat-NFAT-lucia-4-1BB cells (Homo sapiens (Human), UniProt Q07011 24-255); test: flow cytometry on CHO-K1-4-1BB cells, Alexa-647 anti-human Fc
T1 construct: expressed by lentiviral transduction; also called CHO-K1-4-1BB细胞; Jurkat-NFAT-lucia-4-1BB细胞

[2] = biological target: T2, Nectin-4蛋白 (SEQ ID NO:29), expressed on CHO-K1-Nectin-4 cells and A375-Nectin-4 cells (Homo sapiens (Human), UniProt Q96NY8 32-510); test: flow cytometry on CHO-K1-Nectin-4 cells, Alexa-647 anti-human Fc
T2 construct: expressed by lentiviral transduction; also called CHO-K1-Nectin-4细胞; A375-Nectin-4细胞
T2 sequence: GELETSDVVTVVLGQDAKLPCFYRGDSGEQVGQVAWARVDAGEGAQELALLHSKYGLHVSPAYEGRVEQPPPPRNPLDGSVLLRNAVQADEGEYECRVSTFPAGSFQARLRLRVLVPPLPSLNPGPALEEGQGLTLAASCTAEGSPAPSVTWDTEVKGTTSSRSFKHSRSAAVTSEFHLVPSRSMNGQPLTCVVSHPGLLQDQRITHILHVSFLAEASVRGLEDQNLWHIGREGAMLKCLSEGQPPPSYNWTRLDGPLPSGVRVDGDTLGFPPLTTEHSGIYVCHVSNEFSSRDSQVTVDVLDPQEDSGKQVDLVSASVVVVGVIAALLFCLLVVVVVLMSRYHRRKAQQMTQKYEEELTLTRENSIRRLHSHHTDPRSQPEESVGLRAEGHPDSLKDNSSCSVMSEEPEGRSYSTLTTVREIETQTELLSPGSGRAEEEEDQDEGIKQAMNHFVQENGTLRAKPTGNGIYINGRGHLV

4-1BB-strep tagII蛋白 = biological target: T3, 4-1BB-strep tagII蛋白 (Homo sapiens (Human), UniProt Q07011 24-186); test: ELISA, 4-1BB-strep tagII coated at 2 ug/mL, HRP anti-human IgG, OD450
T3 construct: Soluble 4-1BB with C-terminal strep tag II, made in house; Coated on the ELISA plate at 2 ug/mL; also called 4-1BB蛋白

T1 sequence (Q07011 24-255 limits assumed): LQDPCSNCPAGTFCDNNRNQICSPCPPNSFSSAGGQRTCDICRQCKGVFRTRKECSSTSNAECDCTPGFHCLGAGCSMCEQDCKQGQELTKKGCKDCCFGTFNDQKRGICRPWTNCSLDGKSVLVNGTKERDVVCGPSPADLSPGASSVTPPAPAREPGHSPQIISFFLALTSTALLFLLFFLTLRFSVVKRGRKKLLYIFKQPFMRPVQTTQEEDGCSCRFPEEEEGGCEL

binding result [1]: binds | binding result [2]: binds | binding result (4-1BB-strep tagII蛋白): binds
B1: 抗体4-1BB×Nectin-4 (bispecific antibody, human IgG1, kappa, L234A L235A)
scFv: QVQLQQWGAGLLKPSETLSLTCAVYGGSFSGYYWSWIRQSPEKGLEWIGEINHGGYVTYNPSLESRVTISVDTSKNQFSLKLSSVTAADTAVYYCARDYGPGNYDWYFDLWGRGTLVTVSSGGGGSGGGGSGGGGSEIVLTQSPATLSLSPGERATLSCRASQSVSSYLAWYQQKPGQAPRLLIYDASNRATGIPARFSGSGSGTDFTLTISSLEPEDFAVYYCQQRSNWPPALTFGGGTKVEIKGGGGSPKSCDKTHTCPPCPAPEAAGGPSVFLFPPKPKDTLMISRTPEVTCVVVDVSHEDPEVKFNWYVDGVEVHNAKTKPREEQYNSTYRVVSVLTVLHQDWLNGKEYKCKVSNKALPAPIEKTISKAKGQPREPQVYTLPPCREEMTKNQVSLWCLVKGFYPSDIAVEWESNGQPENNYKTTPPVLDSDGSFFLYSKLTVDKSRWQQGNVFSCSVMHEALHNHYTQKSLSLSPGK
heavy: EVQLVESGGGLVQPGGSLRLSCAASGFTFSSYNMNWVRQAPGKGLEWVSYISSSSSTIYYADSVKGRFTISRDNAKNSLSLQMNSLRDEDTAVYYCARAYYYGMDVWGQGTTVTVSSASTKGPSVFPLAPSSKSTSGGTAALGCLVKDYFPEPVTVSWNSGALTSGVHTFPAVLQSSGLYSLSSVVTVPSSSLGTQTYICNVNHKPSNTKVDKKVEPKSCDKTHTCPPCPAPEAAGGPSVFLFPPKPKDTLMISRTPEVTCVVVDVSHEDPEVKFNWYVDGVEVHNAKTKPREEQYNSTYRVVSVLTVLHQDWLNGKEYKCKVSNKALPAPIEKTISKAKGQPREPQVCTLPPSREEMTKNQVSLSCAVKGFYPSDIAVEWESNGQPENNYKTTPPVLDSDGSFFLVSKLTVDKSRWQQGNVFSCSVMHEALHNHYTQKSLSLSPGK
light: DIQMTQSPSSVSASVGDRVTITCRASQGISGWLAWYQQKPGKAPKFLIYAASTLQSGVPSRFSGSGSGTDFTLTISSLQPEDFATYYCQQANSFPPTFGGGTKVEIKRTVAAPSVFIFPPSDEQLKSGTASVVCLLNNFYPREAKVQWKVDNALQSGNSQESVTEQDSKDSTYSLSSTLTLSKADYEKHKVYACEVTHQGLSSPVTKSFNRGEC
notes: Three chains: anti-4-1BB scFv-Fc (knob); human IgG1 Fc with L234A/L235A already contained in the entries; Produced in ExpiCHO, Protein A purified; also called 4-1BB×Nectin-4抗体; 4-1BB×Nectin-4双特异抗体
